Results as given in the RNAGym collection of RNA variant scans (doi:10.7554/elife.80360).

B1: Hammerhead Ribozyme (parent)
chain: ACCGGAUGUGCUUUCCGGUCUGAUGAGUCCGUGAGGACGAAACAG

Variants of: B1
Experiment: self-cleavage, relative activity (ratio to wild type); higher = more cleavage; co-transcriptional

| Variant | self-cleavage |
| --- | --- |
| G17U A23C | 0.32 |
| U7A A42U | 0.257 |
| A42C A44U | 0.351 |
| C20A C30U | 0.498 |
| C3U G4A | 0.387 |
| U7G U9G | 1.35 |
| U19G G22A | 0.394 |
| C16U C20A | 0.524 |
| G17U A44U | 0.469 |
| G4A G31U | 0.678 |
| U12A C29G | 0.721 |
| U7A G45C | 0.566 |
| G27C C43U | 0.399 |
| U24G G45U | 0.489 |
| C29G U32A | 0.847 |
| G31U C38G | 0.59 |
| U14A G25C | 0.288 |
| U9A U32C | 0.953 |
| C11A G18A | 0.839 |
| C15A G45C | 0.44 |
| G22U G25C | 0.264 |
| U13A G22U | 0.381 |
| A6G C11G | 0.921 |
| U7A A23C | 0.434 |

| Variant | self-cleavage |
| --- | --- |
| C16U A40G | 0.294 |
| C16U C43G | 0.352 |
| G25C | 0.324 |
| C11A C16U | 0.985 |
| C2U C38G | 0.976 |
| G39A A42C | 0.369 |
| C11U G18U | 0.469 |
| A1G C38U | 1.49 |
| C29U C30U | 0.656 |
| G4A G10C | 0.414 |
| G10A G27C | 0.701 |
| U9G A44U | 0.388 |
| C16G U32C | 0.717 |
| C20U G22C | 0.377 |
| G17C U21C | 0.275 |
| G36C A37U | 0.29 |
| A6C C16A | 0.643 |
| C30U C43A | 0.34 |
| G4C C15G | 0.929 |
| U28G A42U | 0.311 |
| U19A C20A | 0.287 |
| A1G C3A | 0.699 |
| A34U A44C | 0.447 |
| G4A C43U | 0.271 |

| Variant | self-cleavage |
| --- | --- |
| C15G A44C | 0.277 |
| C2G A34U | 0.347 |
| C15A A41C | 0.338 |
| U28C C43U | 0.405 |
| U12C C38G | 0.663 |
| C20A G33U | 0.548 |
| G4A U19G | 0.238 |
| G31A A41C | 0.407 |
| U13C C30U | 1.24 |
| C20G G45A | 0.356 |
| U7A C43G | 0.237 |
| G31U | 0.966 |
| U9G G39U | 0.319 |
| C3U G31C | 0.974 |
| U13G C15U | 0.763 |
| C2G G35C | 0.339 |
| U28A G35A | 0.405 |
| G27A A42U | 0.301 |
| G5C G45C | 0.397 |
| G10U A40C | 0.548 |
| U12A G36U | 0.596 |
| U7G G8A | 1.29 |
| U32C G33U | 1.37 |
| G31U G39U | 0.353 |

| Variant | self-cleavage |
| --- | --- |
| U24A A42C | 0.363 |
| G8C G39A | 0.347 |
| G35A C43G | 0.353 |
| C30G G45U | 0.377 |
| U19G A34G | 0.345 |
| C11A G35C | 0.887 |
| G8A C16U | 1.13 |
| G22U G45C | 0.348 |
| C16U A34U | 0.755 |
| A1U G10A | 0.815 |
| A6C U14A | 0.536 |
| A1U A23U | 0.306 |
| A34U A42G | 0.258 |
| U12C G18U | 0.626 |
| G10U A34C | 1.13 |
| U9C A41C | 0.407 |
| G18A G36U | 0.496 |
| U21A G31A | 0.634 |
| C11A G17A | 0.717 |
| G5U U14A | 1.24 |
| G4A G18U | 0.323 |
| G5C C43U | 0.316 |
| U12C A23G | 0.37 |
| C11A C20A | 0.452 |

| Variant | self-cleavage |
| --- | --- |
| A1G | 1.79 |
| U9G C38A | 0.671 |
| U28G G45A | 0.418 |
| C11A A37G | 1.28 |
| U24A U28G | 0.694 |
| U24A U28C | 1.27 |
| C11A G36U | 0.762 |
| U24C U32G | 0.802 |
| U24C U32A | 1.18 |
| G8C U28A | 1.22 |
| U19C G27A | 0.382 |
| A1U A42C | 0.395 |
| A1U C38G | 0.33 |
| G35U A37U | 0.52 |
| U32C A37U | 0.752 |
| G17U G33A | 0.862 |
| G31C G33C | 0.969 |
| G5A A44G | 1.29 |
| G17A G25U | 0.372 |
| C11A G25C | 0.284 |
| U12G G27U | 0.411 |
| G4C U7G | 0.768 |
| U13G G36U | 0.658 |
| G10U A26U | 0.873 |

| Variant | self-cleavage |
| --- | --- |
| C38G A44C | 0.508 |
| A6C C29U | 0.695 |
| G17C A37G | 0.355 |
| A6C G36C | 0.326 |
| A6G U7G | 1.35 |
| A6G A26C | 0.396 |
| C20A U32C | 0.541 |
| A1U C15A | 0.373 |
| C16A G27U | 0.534 |
| A1G G27C | 0.879 |
| C2U A37C | 0.782 |
| U19G G33A | 0.551 |
| C20A U24A | 0.764 |
| C20A U24C | 0.368 |
| A23C A40C | 0.31 |
| C15U A23U | 0.342 |
| C38U A44C | 0.596 |
| G8U C29U | 1.01 |
| A1C U9A | 0.399 |
| U13A C20A | 0.446 |
| G5C G22A | 0.263 |
| U7C G33U | 0.755 |
| G4C G17U | 0.291 |
| C11G C20G | 0.261 |

| Variant | self-cleavage |
| --- | --- |
| A6U A42G | 0.307 |
| G5U G25C | 0.301 |
| U9A U12A | 1.23 |
| G35A G39C | 0.346 |
| U13G A41C | 0.348 |
| C16G U19A | 0.253 |
| G36C A40G | 0.368 |
| U12C U24A | 1.04 |
| C20A G27C | 0.369 |
| G25C G31C | 0.339 |
| G5A U32G | 0.533 |
| U9C G22U | 0.307 |
| C11U U13G | 1.25 |
| C16G G18U | 0.744 |
| G17A G39C | 0.333 |
| G5U U9C | 0.881 |
| C30A G45A | 0.575 |
| A1G A6G | 1.5 |
| C20U C30G | 0.398 |
| C15U C43G | 0.305 |
| A6U U13C | 1.02 |
| G22A A42G | 0.351 |
| A26U A41U | 0.29 |
